Test system: human eosinophils
Test: Agonist, antagonist and ligand-induced signal enhancing activity using shape change of human eosinophils (Example 21)
Assay type: cell-based
Conditions: antibody 10 μg/mL, FIG. 18
Method: Eosinophils were separated from human peripheral blood in the same manner as in Example 11. In this case, the step of adding the same amount of physiological saline for injection as the blood to the blood was omitted and the […] on Ficoll-Paque PREMIUM 1.084 (GE Healthcare). The isolated human eosinophils were suspended with D-PBS (−) (NACALAI TESQUE, Inc.) and a reaction was performed in a 5% CO2 incubator at 37° C. for 1 hour and 30 minutes.
Thereafter, the cells were seeded in a 96-well plate at 0.7×10^5 cells/well using 10% FBS-containing RPMI1640. Next, an isotype control antibody, the humanized Lym2 antibody LV0HV1, the anti-human CRTH2 antibody hu19A2 v52, ch8B1, ch3C12, or ch31A5 prepared in Example 9, or the commercially available anti-human CRTH2 antibody BM16 (Santa Cruz Biotechnology), or 301108 (R&D) was added thereto at a final concentration of 10 μg/mL to cause a reaction in a 5% CO2 incubator at 37° C. for 30 minutes. […]
Next, RPMI1640 containing either DKPGD2 (Cayman Chemical) or 10% FBS—was added thereto at a final concentration of 100 nM to cause a reaction in a 5% CO2 incubator at 37° C. for 60 minutes. […] The cells were washed twice with SM, and the shape change of eosinophils was analyzed in the same manner as in Example 19.

B1: LV0HV1: humanized Lym2 antibody, VL LV0 (SEQ ID NO: 33), VH HV1 (SEQ ID NO: 51) (antibody, V domains shown)
VH: EVQLVESGGGVVQPGRSLRLSCAASGFTFSNYYMAWVRQAPGKGLEWVATISYDGSSTYYRDSVKGRFTISRDNAKNSLYLQMNSLRAEDTATYYCARHRGYYYSGAGYFDYWGQGTMVTVSS
VL: DIVMTQTPLSLPVTPGESASISCRSSQSLEYSDGYTYLEWYLQKPGQSPQVLIYGVSNRFSGVPDRFSGSGSGTDFTLKISRVEAEDVGVYYCFQATHDPLTFGQGTKLEIK
effect on shape change of eosinophils induced by DKPGD2 (DKPGD2 100 nM): do not affect shape change | shape change of eosinophils in the absence of a ligand (agonist activity) (no DKPGD2): do not affect shape change
